Paper PMC8113602

Legend:
SP-gp41-CFP (HIV-1) = experiment: FRET or BRET; acceptor photobleaching FRET in HEK293T cells 24 h after transfection; donor SP-gp41-CFP, acceptor CD63-YFP; 514 nm bleaching
[1] = target: gp41 bait of pBT3-SUC-gp41 (ectodomain and transmembrane region of gp41, HIV-1 Env aa 534-709); experiment: split-ubiquitin yeast two-hybrid, β-galactosidase activity assay; conditions: yeast NMY51, three independent yeast colonies, parent: est. 39, read off a plot

| Substance | reduction of FRET efficiency against CD63-YFP as acceptor (SP-gp41-CFP (HIV-1)) | response [1] |
| --- | --- | --- |
| CD63_(C145A,C146A)-YFP (from UniProt P08962 1-238) (natural protein) | < 58% | – |
| CD63 TM4LEL (aa 108-238), single membrane spanning prey (from UniProt P08962) C191A | – | 17 Miller units |
| CD63 TM4LEL (aa 108-238), single membrane spanning prey (from UniProt P08962) C145A; C146A | – | 11 Miller units |
| CD63 TM4LEL (aa 108-238), single membrane spanning prey (from UniProt P08962) C169A; C170A | – | 30 Miller units |
| CD63 TM4LEL (aa 108-238), single membrane spanning prey (from UniProt P08962) C177A | – | 25 Miller units |
